These results are taken from the supplement of paper PMC12783771.

Where a chain is given by its changes, count along the chain named. ± gives the standard deviation of the averaged measurements.

Sequences and labels used below:
B1: library; a variant is named by its letters at X, in order (parent)
chain: MNIQIGELAKRTACPVVTIRFYEQEGLLPPPGRSRGNFRLYGEEHVERLQFIRHCRSLDMPLSXVRTLLSYRKRPDQDCGEVXMLLDEHIRQVESRIGALLELXHHXVELREACSGARPAQSCGILQXLSXCVCXTRGTTAHXSD
B2: library; a variant is named by its letters at X, in order (parent)
chain: B1 chain with I90X, H106X, X107L, X128G, X131D, X135D

In series [1] the parent is B1. Briefly: sfGFP reporter fluorescence (15 h) (µM FITC); higher = higher leak. Particulars: library round: Round 3; ligand: none. As for the experimental part: (§1)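 Cell-free biosensing: 1 µL Echo-assembled CFE reactions with linear PbrR variant templates (5 nM) and pPbrR-sfGFP reporter, with 1 µM Pb, 30 µM Zn or no ligand; endpoint sfGFP fluorescence after 15 h at 30 °C calibrated as µM FITC. Round 3 ML-predicted PbrR mutants; up to 3 biological replicates.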

Series [2] covers variants of B1. Description: sfGFP reporter fluorescence (15 h) (µM FITC); higher = stronger transcriptional activation. To be noted: library round: Round 3. On the procedure: as §1
The variants in series [3] derive from B2. Description: sfGFP reporter fluorescence (15 h) (µM FITC); higher = higher leak. Particulars: library round: Round 3b; ligand: none. On the procedure: (§2)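 Cell-free biosensing: 1 µL Echo-assembled CFE reactions with linear PbrR variant templates (5 nM) and pPbrR-sfGFP reporter, with 1 µM Pb, 30 µM Zn or no ligand; endpoint sfGFP fluorescence after 15 h at 30 °C calibrated as µM FITC. Round 3b rational combinatorial PbrR mutants; 3 biological replicates.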

Series [4] covers variants of B2. Briefly: sfGFP reporter fluorescence (15 h) (µM FITC); higher = stronger transcriptional activation. Particulars: library round: Round 3b. As for the experimental part: as §2

As for DSKLGNRA Q121A, the figures for the sfGFP reporter fluorescence in series [1], in series [2] (ligand: 1 µM Pb) and in series [2] (ligand: 30 µM Zn) were 0.044 ± 0.0012, 0.209 ± 0.008 and 0.945 ± 0.054, respectively.
In the case of KNKCGADP M60L P61N, the sfGFP reporter fluorescence in series [1] is 2.59 ± 0.17; in series [2] (ligand: 1 µM Pb) it was 2.95 ± 0.29; in series [2] (ligand: 30 µM Zn), 2.51 ± 0.32.
The like results for DCKLGADY V16C H106A were, in that order, 0.0446 ± 0.0041, 0.232 ± 0.014 and 0.0501 ± 0.00089.
The like results for DTKLGCDP V108L Q121A were, in that order, 0.043 ± 0.0018, 0.117 ± 0.0039 and 0.116 ± 0.0027.
As to DTKCGSAP, the sfGFP reporter fluorescence in series [1] stood at 0.21 ± 0.0021; in series [2] (ligand: 1 µM Pb), 1.43 ± 0.041; in series [2] (ligand: 30 µM Zn) it was 2.22 ± 0.1.
Regarding DTKLGSPP Q121A, the sfGFP reporter fluorescence in series [1] is 0.0408 ± 0.0027; in series [2] (ligand: 1 µM Pb) it was 0.186 ± 0.0074; in series [2] (ligand: 30 µM Zn), 0.3204 ± 0.0016.
The like results for LIVCGAAP H54C C55P H106L were, in that order, 0.0444 ± 0.0015, 0.0432 ± 0.00085 and 0.0495 ± 0.0022.
DIIVAT: the sfGFP reporter fluorescence came to 0.0468 ± 0.0037 in series [3], 0.131 ± 0.0097 in series [4] (ligand: 1 µM Pb) and 0.0469 ± 0.005 in series [4] (ligand: 30 µM Zn).
The like results for DIIVER were, in that order, 0.0467 ± 0.0027, 0.0917 ± 0.0042 and 0.047 ± 0.0038.
The like results for DIIVET were, in that order, 0.0433 ± 0.0015, 0.0933 ± 0.0025 and 0.0469 ± 0.0019.
As to KIATAR, the sfGFP reporter fluorescence in series [3] worked out at 0.069 ± 0.0014; in series [4] (ligand: 1 µM Pb), 1.49 ± 0.15; in series [4] (ligand: 30 µM Zn), 0.0681 ± 0.0007.
The like results for KIATAT were, in that order, 0.0691 ± 0.0019, 1.29 ± 0.062 and 0.0697 ± 0.0016.
The like results for KIATAP were, in that order, 0.0703 ± 0.0043, 1.26 ± 0.096 and 0.0679 ± 0.006.
Turning to DFAVHR, the results for the sfGFP reporter fluorescence in series [3], in series [4] (ligand: 1 µM Pb) and in series [4] (ligand: 30 µM Zn) were 0.0438 ± 0.0023, 0.059 ± 0.0031 and 0.0519 ± 0.0031, respectively.
The like results for DFAVHT were, in that order, 0.0401 ± 0.0051, 0.0539 ± 0.001 and 0.0473 ± 0.0027.
As to KIAKAP, the sfGFP reporter fluorescence in series [3] worked out at 0.0576 ± 0.0074; in series [4] (ligand: 1 µM Pb) it was 0.674 ± 0.062; in series [4] (ligand: 30 µM Zn), 0.0578 ± 0.0037.
The like results for KIAKAR were, in that order, 0.0603 ± 0.0029, 0.794 ± 0.049 and 0.0642 ± 0.0027.
The like results for KIAKAT were, in that order, 0.0563 ± 0.006, 0.675 ± 0.061 and 0.0628 ± 0.0018.
Consider DFIVAT, for which the sfGFP reporter fluorescence worked out at 0.0456 ± 0.0052 in series [3], 0.0992 ± 0.004 in series [4] (ligand: 1 µM Pb) and 0.0496 ± 0.0011 in series [4] (ligand: 30 µM Zn).
The like results for KNITER were, in that order, 0.0631 ± 0.0055, 0.311 ± 0.029 and 0.926 ± 0.12.
Consider KNITET, for which the results for the sfGFP reporter fluorescence in series [3], in series [4] (ligand: 1 µM Pb) and in series [4] (ligand: 30 µM Zn) were 0.0629 ± 0.0071, 0.318 ± 0.015 and 0.944 ± 0.15, respectively.
In the case of DIAVER, the sfGFP reporter fluorescence in series [3] came out at 0.0436 ± 0.004; in series [4] (ligand: 1 µM Pb), 0.0866 ± 0.0039; in series [4] (ligand: 30 µM Zn) it was 0.0484 ± 0.0041.
The like results for DIAVET were, in that order, 0.0432 ± 0.0019, 0.07 ± 0.0044 and 0.0437 ± 0.002.
The like results for DIAVEP were, in that order, 0.0409 ± 0.0007, 0.0827 ± 0.0059 and 0.04514 ± 0.00039.
In the case of KIITHR, the sfGFP reporter fluorescence in series [3] was found to be 0.0506 ± 0.0028; in series [4] (ligand: 1 µM Pb) it was 0.485 ± 0.067; in series [4] (ligand: 30 µM Zn), 0.0734 ± 0.0022.
Turning to KIITHT, the sfGFP reporter fluorescence was 0.0492 ± 0.0029 in series [3], 0.471 ± 0.031 in series [4] (ligand: 1 µM Pb) and 0.0728 ± 0.0057 in series [4] (ligand: 30 µM Zn).
As for KFAVAR, the sfGFP reporter fluorescence in series [3] turned out to be 0.0482 ± 0.0037; in series [4] (ligand: 1 µM Pb), 0.398 ± 0.028; in series [4] (ligand: 30 µM Zn), 0.0563 ± 0.00097.
As to KFAVAT, the sfGFP reporter fluorescence in series [3] was determined as 0.0465 ± 0.0014; in series [4] (ligand: 1 µM Pb) it was 0.356 ± 0.02; in series [4] (ligand: 30 µM Zn), 0.057 ± 0.0017.
The like results for DIAVHT were, in that order, 0.0457 ± 0.0036, 0.102 ± 0.0083 and 0.0483 ± 0.0036.
As to DIAVHR, the sfGFP reporter fluorescence in series [3] is 0.0454 ± 0.0066; in series [4] (ligand: 1 µM Pb), 0.104 ± 0.0012; in series [4] (ligand: 30 µM Zn), 0.0493 ± 0.0043.
The like results for KFAKET were, in that order, 0.0549 ± 0.0049, 0.413 ± 0.019 and 0.0675 ± 0.0044.
The like results for KFAKEP were, in that order, 0.0525 ± 0.0023, 0.414 ± 0.015 and 0.0724 ± 0.0068.
The like results for KFAKER were, in that order, 0.0536 ± 0.0034, 0.438 ± 0.026 and 0.0631 ± 0.0086.
As for KIIVAT, the results for the sfGFP reporter fluorescence in series [3], in series [4] (ligand: 1 µM Pb) and in series [4] (ligand: 30 µM Zn) were 0.0506 ± 0.0022, 0.424 ± 0.013 and 0.0534 ± 0.0041, respectively.
Consider KNITAR, for which the sfGFP reporter fluorescence in series [3] is 0.0701 ± 0.0068; in series [4] (ligand: 1 µM Pb) it was 0.379 ± 0.032; in series [4] (ligand: 30 µM Zn), 1.07 ± 0.19.
The like results for KNITAT were, in that order, 0.0655 ± 0.0027, 0.358 ± 0.021 and 0.972 ± 0.077.
The like results for KFIVEP were, in that order, 0.0475 ± 0.004, 0.567 ± 0.017 and 0.107 ± 0.013.
Consider KFIVET, for which the values for the sfGFP reporter fluorescence in series [3], in series [4] (ligand: 1 µM Pb) and in series [4] (ligand: 30 µM Zn) were 0.0511 ± 0.0019, 0.453 ± 0.057 and 0.094 ± 0.006, respectively.
The like results for KFIVER were, in that order, 0.0558 ± 0.0015, 0.491 ± 0.0094 and 0.0916 ± 0.0098.
The like results for KFIKER were, in that order, 0.0412 ± 0.0027, 0.147 ± 0.0078 and 0.0496 ± 0.0038.
The like results for KFIKET were, in that order, 0.0439 ± 0.002, 0.135 ± 0.0014 and 0.0531 ± 0.0027.
Turning to KNIVET, the sfGFP reporter fluorescence turned out to be 0.112 ± 0.0075 in series [3], 0.514 ± 0.055 in series [4] (ligand: 1 µM Pb) and 1.2 ± 0.06 in series [4] (ligand: 30 µM Zn).
Regarding KNIVER, the sfGFP reporter fluorescence stood at 0.115 ± 0.006 in series [3], 0.585 ± 0.046 in series [4] (ligand: 1 µM Pb) and 1.4 ± 0.2 in series [4] (ligand: 30 µM Zn).
The like results for DFATHT were, in that order, 0.0408 ± 0.0051, 0.0491 ± 0.0032 and 0.0448 ± 0.0049.
